In the supplement of paper PMC11865577:

Tests used:
Assay in all cases: pull-down binding Z-score (relative to library population); higher = stronger binding
[1] = tested on: TO-N3-2 (biotin conjugate); details: RNA library: Library-2
In short: (§1)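 A heat-folded, dye-end-labelled (Cy5 or Cy3) RNA library (1 μg, phosphate/NaCl/KCl buffer) was exposed for 60 min at 25 °C to streptavidin beads holding 100 pmol of biotin-conjugated small molecule. RNA retained on the beads was eluted in hot SDS and hybridised to a DNA barcode microarray for 20 h at 55.5 °C. Binding scores were Z-scores against the library mean and standard deviation, calculated after subtracting beads alone and taking trimmed means of replicate probes.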

[2] = tested on: TO-3-N3 (biotin conjugate); details: RNA library: Library-2
In short: as §1

[3] = tested on: G-clamp-N3 (biotin conjugate); details: RNA library: Library-1 (pre-miRNA loops + repeats)
In short: as §1

TO-N3 (biotin conjugate) = details: RNA library: Library-2
In short: as §1

[4] = tested on: TO-3-N3-2 (biotin conjugate); details: RNA library: Library-2
In short: as §1

| Sequence | pull-down binding Z-score [1] | pull-down binding Z-score [2] | pull-down binding Z-score [3] | pull-down binding Z-score (TO-N3 (biotin conjugate)) | pull-down binding Z-score [4] |
| --- | --- | --- | --- | --- | --- |
| CUGUGAUAACAACUCAG [hsa-mir-4705] | -0.508 | 0.564 | -1.06 | 0.29 | -0.23 |
| UAUUCUGAUGUCCAAGUGGAAA [hsa-mir-372] | -0.504 | -0.733 | -0.198 | -0.772 | -0.345 |
| CAGUGGCAGAUUUUCCCAUAG [hsa-mir-4727] | -0.00285 | -0.543 | -1.12 | -0.439 | -0.261 |
| AGUUGUGAAUUCUCAAAACACCU [hsa-mir-660] | -0.129 | -0.401 | -0.342 | -0.417 | -0.349 |
| CUUUCUGUUGUCUGAAAGAAAAGAAAA [hsa-mir-522] | 0.775 | -0.109 | -0.228 | 0.617 | 0.118 |
| CAUCAUUUGCACUACUGAUACUUGGGGUCAGAUAAUUGUUUGUGGUG [hsa-mir-4447] | -0.616 | -0.801 | 0.115 | -0.914 | -0.334 |
| AAUGUCAGGGCCACCCCUGACCUU [hsa-mir-6837] | -0.497 | -0.431 | 0.482 | -0.481 | -0.382 |
| UUCUCGAGUCUAUGGCUCCGGCCGAGAG [hsa-mir-219a-1] | 1.1 | 0.197 | -0.199 | 0.342 | 0.358 |
| AUUUCUGUGUUCGUUAGGCAACAG [hsa-mir-221] | 0.324 | 0.785 | 0.12 | 1.07 | 0.283 |
| AUGGAUAUGGGAACUGUGAUGUCCA [hsa-mir-4768] | 0.232 | -0.305 | 1.17 | -0.136 | 0.0446 |
| GGCUGGACAGGAGAGGGCUCACCCAGG [hsa-mir-6775] | 1.77 | 1.16 | 0.487 | 1.78 | 0.591 |
| GGUAAGGUCUUUCAGCC [hsa-mir-7150] | 0.413 | 0.648 | 0.213 | 0.622 | 0.105 |
| UCCAGGCAUCUGUGUCUG [hsa-mir-4669] | 0.591 | 1.48 | -0.0379 | 1.52 | 0.402 |
| AGUGGAAAAAGUUCUUUUCUUCCUCU [hsa-mir-3192] | -0.263 | 0.0782 | 0.387 | 0.0678 | 0.895 |
| CUGUGAAUCCAAGAUCCACA [hsa-mir-4527] | -0.241 | -0.439 | -1.57 | -0.39 | -0.489 |
| CUUUCUGUUGGCUAAAAGAAAAGAAAG [hsa-mir-518e] | 0.0576 | -0.396 | 1.11 | -0.366 | 0.129 |
| GCCGGGGCCUGGCGCUCCUCUACCUUGUCAGGUGACCCAGC [hsa-mir-4274] | 0.434 | 0.564 | -1.05 | 0.538 | -0.179 |
| GGUUUUUACCAUUAAAACC [hsa-mir-548aw] | -1.44 | -0.656 | -0.37 | -1.01 | -0.448 |
| CCACAUAGGAGGGACAGCGGCCUUUCCAACAGG [hsa-mir-9500] | 0.847 | 0.253 | -0.994 | 0.58 | 0.043 |
| CGAGGUGGGCUAGGCUCGGGCCCGUGGCG [hsa-mir-3656] | 2.8 | 0.715 | 2.89 | 1.7 | 0.185 |
| GAGGAUGCAGGAGAGGAAGGGGGCUUCUUUUUGACGCCUACUUCAUCAGCUGCUCCUC [hsa-mir-4330] | 1.56 | 2.31 | 0.824 | 2.26 | 2.41 |
| CCGUGCCCUGGCCACUCAUUCGG [hsa-mir-6741] | 1.1 | 0.294 | -0.0927 | 0.45 | 0.133 |
| GCCAGUCAGCGCUCACAUUAAGGCUGAC [hsa-mir-2277] | 0.0682 | -0.289 | -0.612 | -0.222 | -0.0851 |
| GGGGCUGAGGCUGAGUCUUCCUCCC [hsa-mir-6756] | 1.53 | 0.154 | 0.713 | 0.806 | 0.101 |
| GUCCUGACUGCGUGCCAGGGGC [hsa-mir-3650] | 0.488 | -0.235 | 0.903 | -0.175 | -0.518 |
| AGGUUUAUGACUGGGCAUUUCUCACCCAAUGCCCAAUAUUGAACUU [hsa-mir-4431] | -0.666 | -0.564 | -0.59 | -0.752 | -0.213 |

| Sequence | pull-down binding Z-score [1] | pull-down binding Z-score [2] | pull-down binding Z-score [3] | pull-down binding Z-score (TO-N3 (biotin conjugate)) | pull-down binding Z-score [4] |
| --- | --- | --- | --- | --- | --- |
| CCAUGUAAUCUUUGG [hsa-mir-1302-5] | -0.0743 | 0.507 | -0.454 | 0.454 | 0.112 |
| UGGACAGAAAUUUCCUUUUGAGGAAAUCUUUCCC [hsa-mir-4308] | -0.367 | -0.486 | -0.543 | -0.671 | -0.309 |
| CUAUGGCCCCCCUCCUCUCUGAAAGCAAGGCCACUUG [hsa-mir-8081] | 0.982 | 0.3 | -1.13 | 0.738 | 0.282 |
| AUUGGCUUGGAUUCUGCAAAGCCU [hsa-mir-7151] | 1.03 | -0.259 | 0.697 | 0.194 | 0.281 |
| UGCUCAGUGGAGUUAUUUUGAGCA [hsa-mir-4495] | -1.2 | -1.01 | 1.2 | -1.42 | -0.621 |
| GGGUGUAUGGUAUAGGGGUAGCCU [hsa-mir-3137] | 2.42 | 2.13 | 3.31 | 2.5 | 1.54 |
| CAGAGGUCCCACAGCAGGGCUGGAAAGCACACCUGUGGGACUUCUG [hsa-mir-3922] | -0.164 | 0.224 | 0.395 | 0.231 | 0.0101 |
| GAUUCGCUUUACUUAUGACGAAUC [hsa-mir-382] | -0.716 | -0.268 | -0.449 | -0.424 | -0.107 |
| AGCUUUAUGUAUUCUGAAGUUAUUGAAAAUAAGAGCU [hsa-mir-3140] | -0.911 | -0.877 | -0.628 | -1.1 | -0.254 |
| GUGGAGGGUGGUGCCGCCGGGGCCGGGCGCUGUUUCAGCUCGCUUCUCCCCCCAC [hsa-mir-1224] | 2.36 | 2.06 | 0.608 | 2.71 | 1.31 |
| CAGCCCCGUGUGUUGAGGAAGGAAGG [hsa-mir-940] | 1.95 | 0.485 | 1.54 | 1.24 | 0.769 |
| UGCCACCCAGCCCUGCAGAGCCCCUGACUC [hsa-mir-6814] | 1.44 | 0.562 | -1.17 | 1.16 | 0.422 |
| ACACUGGGCUGCCCCCACUGCCCAGUGC [hsa-mir-4277] | 0.413 | 0.676 | -0.963 | 0.594 | -0.357 |
| CCUCUGUCCUCUGUCCUCUACCUAUAGAGG [hsa-mir-641] | 0.141 | 0.224 | 0.349 | 0.118 | -0.229 |
| UCCAUGAAAAGAACCCAUGGG [hsa-mir-4471] | -0.307 | -0.455 | -0.734 | -0.608 | 0.0519 |
| AACACCCAUCCCAGGAUUGCUGAUGGGUGUU [hsa-mir-5705] | -0.282 | -0.618 | -0.7 | -0.668 | -0.428 |
| CACUCAGUAAAUAUUUGUUGAGUG [hsa-mir-1271] | -1.18 | -0.368 | 0.231 | -0.674 | -0.186 |
| AACAGCAGGAUUGGCUGUAGCUGUU [hsa-mir-2117] | 0.369 | 0.357 | 0.593 | 0.185 | -0.324 |
| GGGCCAUGUCUGUGAGGGCCCA [hsa-mir-4294] | 0.936 | -0.261 | 3.2 | 0.221 | 0.0026 |
| AGUUCAGGAGGUGGCACUGCUGUGUGUGAGCU [hsa-mir-6876] | 1.27 | 0.801 | 1.55 | 0.97 | 0.631 |
| UAUGAAGGUAAGCAUUUUUGUA [hsa-mir-3935] | -0.419 | -0.615 | -0.00708 | -0.614 | -0.263 |
| GCAUGGGGCUAGGAGGCCCCGCGC [hsa-mir-6825] | 0.142 | 0.451 | -0.292 | 0.391 | 0.00553 |
| CCAUGGGGGCCUUGCUGUGU [hsa-mir-6808] | 1.04 | 1.05 | 1.56 | 1.28 | 0.335 |
| GGGUCAGGUCUGCAGCCUUGUAUCUGCUGAUCC [hsa-mir-6881] | -0.107 | -0.183 | -0.0593 | -0.234 | -0.227 |
| UGCAGUAUCCGCUGUUGCUGCU [hsa-mir-6132] | 0.672 | -0.329 | -1.39 | -0.105 | -0.341 |
| GGAGGCAUGAAUGAGCCAUCUUUCCAAUGCCUUUC [hsa-mir-4743] | 0.952 | -0.573 | -1.03 | -0.118 | -0.332 |
